# Biological target: MERS-CoV spike RBD fragment (human betacoronavirus 2c EMC/2012 …, UniProt K0BRG7 367-606)
# Experiment: MST
binder,measurement,value
ACATAGGCGTT (ssDNA) [Labeled complementary strand],binding result,no binding

# From paper doi:10.1101/2023.02.11.528153
